{"source": "the RNAGym collection of RNA variant scans (doi:10.7554/elife.80360)", "parents": {"B1": {"name": "HDV Ribozyme (parent)", "chain": "GGCCGGCAUGGUCCCAGCCUCCUCGCUGGCGCCGGCUGGGCAACAUUCCGAGGGGACCGUCCCCUCGGUAAUGGCGAAUGGGACCCA"}}}
{"variants_of": "B1", "experiment": "self-cleavage, relative activity (ratio to wild type); higher = more cleavage; co-transcriptional"}
{"variant": "G25C C63A", "self-cleavage": 0.0755}
{"variant": "G5A C30U", "self-cleavage": 0.0692}
{"variant": "C32A U72G", "self-cleavage": 0.178}
{"variant": "C66A C86U", "self-cleavage": 0.9}
{"variant": "G35U A56C", "self-cleavage": 0.358}
{"variant": "U12G C61G", "self-cleavage": 0.798}
{"variant": "C61G U69G", "self-cleavage": 0.831}
{"variant": "A77U A83U", "self-cleavage": 0.0898}
{"variant": "G11U A83C", "self-cleavage": 0.119}
{"variant": "U72C G82A", "self-cleavage": 0.248}
{"variant": "G81C G82U", "self-cleavage": 0.287}
{"variant": "G81U A87G", "self-cleavage": 0.291}
{"variant": "G2C A77G", "self-cleavage": 0.0346}
{"variant": "A16C U27A", "self-cleavage": 0.684}
{"variant": "C41G A43U", "self-cleavage": 0.277}
{"variant": "G54A G74C", "self-cleavage": 0.194}
{"variant": "G17A C62G", "self-cleavage": 0.633}
{"variant": "A8U U20C", "self-cleavage": 0}
{"variant": "G50A C62U", "self-cleavage": 0.926}
{"variant": "U12A A43C", "self-cleavage": 0.161}
{"variant": "G31C C41A", "self-cleavage": 0.305}
{"variant": "A8C C62G", "self-cleavage": 0.475}
{"variant": "C24G G34C", "self-cleavage": 0.0437}
{"variant": "G10U A42G", "self-cleavage": 0.325}
{"variant": "C75U A83U", "self-cleavage": 0.199}
{"variant": "C18A G34A", "self-cleavage": 0.0326}
{"variant": "G29A U60G", "self-cleavage": 0.0923}
{"variant": "A16U G52A", "self-cleavage": 0.7}
{"variant": "G52C A71U", "self-cleavage": 0.831}
{"variant": "C19U G55A", "self-cleavage": 0.225}
{"variant": "G31U G53A", "self-cleavage": 0.289}
{"variant": "C26A A51U", "self-cleavage": 1.08}
{"variant": "C49G G59C", "self-cleavage": 0.793}
{"variant": "U12C G59C", "self-cleavage": 0.415}
{"variant": "A16C U46G", "self-cleavage": 0.332}
{"variant": "G38U U65A", "self-cleavage": 0.292}
{"variant": "C57A C66A", "self-cleavage": 1.18}
{"variant": "C63A C66U", "self-cleavage": 0.814}
{"variant": "G6C G28A", "self-cleavage": 0.0545}
{"variant": "G50A C64U", "self-cleavage": 1.26}
{"variant": "C7U C86U", "self-cleavage": 0.678}
{"variant": "A8C G73C", "self-cleavage": 0.115}
{"variant": "U69A G82U", "self-cleavage": 0.491}
{"variant": "C32U G54U", "self-cleavage": 0.923}
{"variant": "G2U G80U", "self-cleavage": 0.0208}
{"variant": "G6U G59C", "self-cleavage": 0.475}
{"variant": "G10U C48G", "self-cleavage": 0.767}
{"variant": "C22A C44G", "self-cleavage": 0.0489}
{"variant": "C21U C26U", "self-cleavage": 0.646}
{"variant": "U20G A45G", "self-cleavage": 0.0755}
{"variant": "C58A C64A", "self-cleavage": 0.962}
{"variant": "C7U A71U", "self-cleavage": 0.677}
{"variant": "C4G C63U", "self-cleavage": 0.249}
{"variant": "C49G G67A", "self-cleavage": 0.637}
{"variant": "C30A G53C", "self-cleavage": 0.47}
{"variant": "G50C G67C", "self-cleavage": 0.399}
{"variant": "U12G A78C", "self-cleavage": 0.0594}
{"variant": "G10A C24A", "self-cleavage": 0.367}
{"variant": "G10U U23G", "self-cleavage": 0.0791}
{"variant": "G52U G53U", "self-cleavage": 0.733}
{"variant": "U72G G73C", "self-cleavage": 0.639}
{"variant": "G53A G67U", "self-cleavage": 0.884}
{"variant": "G34U G59U", "self-cleavage": 0.229}
{"variant": "C4G G5A", "self-cleavage": 0.0519}
{"variant": "U9C A16C", "self-cleavage": 0.519}
{"variant": "G10A U79A", "self-cleavage": 0.302}
{"variant": "G10U U69G", "self-cleavage": 0.815}
{"variant": "G53A A83U", "self-cleavage": 0.521}
{"variant": "U23A C58U", "self-cleavage": 1.25}
{"variant": "G5C G50C", "self-cleavage": 0.151}
{"variant": "U12C C44A", "self-cleavage": 0.252}
{"variant": "C26A G81U", "self-cleavage": 0.519}
{"variant": "U9C C85G", "self-cleavage": 0.731}
{"variant": "A43C G82A", "self-cleavage": 0.185}
{"variant": "C58A U69G", "self-cleavage": 1.04}
{"variant": "C18G G74A", "self-cleavage": 0.0449}
{"variant": "G34C G59C", "self-cleavage": 0.0811}
{"variant": "G35U A43U", "self-cleavage": 0.282}
{"variant": "G2A C22A", "self-cleavage": 0.0205}
{"variant": "C15U C30A", "self-cleavage": 0.567}
{"variant": "G1C A71G", "self-cleavage": 0}
{"variant": "U27A U65A", "self-cleavage": 0.95}
{"variant": "G40A C66U", "self-cleavage": 0.892}
{"variant": "C36G C66G", "self-cleavage": 0.237}
{"variant": "G6C A8U", "self-cleavage": 0.346}
{"variant": "A16C C41A", "self-cleavage": 0.388}
{"variant": "C49U C61G", "self-cleavage": 0.731}
{"variant": "G34A G54U", "self-cleavage": 0.17}
{"variant": "C24U A77C", "self-cleavage": 0.119}
{"variant": "G11A C64G", "self-cleavage": 0.705}
{"variant": "G59C C75U", "self-cleavage": 0.233}
{"variant": "C14A A70U", "self-cleavage": 0.344}
{"variant": "C57U G74A", "self-cleavage": 0.501}
{"variant": "A8U C30A", "self-cleavage": 0.299}
{"variant": "C19U A51G", "self-cleavage": 0.194}
{"variant": "G11C G54A", "self-cleavage": 0.277}
{"variant": "U47G A56C", "self-cleavage": 1.09}
{"variant": "G34U G52C", "self-cleavage": 0.101}
{"variant": "U20G G68U", "self-cleavage": 0.201}
{"variant": "C84A C85G", "self-cleavage": 0.519}
{"variant": "G6C A43C", "self-cleavage": 0.0519}
{"variant": "C33G C75G", "self-cleavage": 0.0426}
{"variant": "G31C A42U", "self-cleavage": 0.0707}
{"variant": "G50A G82U", "self-cleavage": 0.364}
{"variant": "A51G A77G", "self-cleavage": 1.02}
{"variant": "G40C G81A", "self-cleavage": 0.0755}
{"variant": "A77U G80U", "self-cleavage": 0.161}
{"variant": "U37C C63A", "self-cleavage": 1.03}
{"variant": "C44A A78G", "self-cleavage": 0.175}
{"variant": "C18G G28C", "self-cleavage": 0.0573}
{"variant": "G29U C61U", "self-cleavage": 0.122}
{"variant": "U27C G28U", "self-cleavage": 0.0678}
{"variant": "G39A G73C", "self-cleavage": 0.205}
{"variant": "A42C C57G", "self-cleavage": 0.237}
{"variant": "A8C G74U", "self-cleavage": 0.475}
{"variant": "U46C G82C", "self-cleavage": 0.243}
{"variant": "G35U G52U", "self-cleavage": 0.459}
{"variant": "C36A C57A", "self-cleavage": 0.297}
{"variant": "G74U U79C", "self-cleavage": 0.0963}
{"variant": "G17U U27A", "self-cleavage": 0.486}
{"variant": "A42G U65G", "self-cleavage": 0.536}
{"variant": "U9A G82U", "self-cleavage": 0.375}
{"variant": "G25U U79G", "self-cleavage": 0.0426}
{"variant": "A16U A71U", "self-cleavage": 0.877}
{"variant": "G38C G67U", "self-cleavage": 0.366}
{"variant": "C4U C32G", "self-cleavage": 0}
{"variant": "G11C C24G", "self-cleavage": 0.0583}
{"variant": "C7U A43C", "self-cleavage": 0.26}
{"variant": "G6C G40U", "self-cleavage": 0.0536}
{"variant": "G25U U46A", "self-cleavage": 0.0852}
{"variant": "C44A G81U", "self-cleavage": 0.203}
{"variant": "U37A G68C", "self-cleavage": 0.0405}
{"variant": "G29C C32A", "self-cleavage": 0.0791}
{"variant": "C21U G40U", "self-cleavage": 0.0764}
{"variant": "U23A U69C", "self-cleavage": 0.942}
{"variant": "G39U G55A", "self-cleavage": 0.831}
{"variant": "C14G U46G", "self-cleavage": 0.237}
{"variant": "G54C G67U", "self-cleavage": 0.783}
{"variant": "C24U G55A", "self-cleavage": 0.869}
{"variant": "C24A A45G", "self-cleavage": 0.898}
{"variant": "C22A G68U", "self-cleavage": 0.212}
{"variant": "G39A C66A", "self-cleavage": 0.441}
{"variant": "G10A C62U", "self-cleavage": 0.898}
{"variant": "G31U G40C", "self-cleavage": 0.0519}
{"variant": "U20C C49G", "self-cleavage": 0.0852}
{"variant": "U9A C41U", "self-cleavage": 1.07}
{"variant": "A70U G80C", "self-cleavage": 0.213}
{"variant": "G38A G50A", "self-cleavage": 0.0886}
{"variant": "C18G G25A", "self-cleavage": 0.0504}
{"variant": "G2U C24U", "self-cleavage": 0.0784}
{"variant": "G6C C63A", "self-cleavage": 0.582}
{"variant": "U12G G76C", "self-cleavage": 1.2}
{"variant": "G38C C57G", "self-cleavage": 0.356}
{"variant": "C21G C84A", "self-cleavage": 0.138}
{"variant": "U46A U47G", "self-cleavage": 0.369}
{"variant": "G52C", "self-cleavage": 1.01}
{"variant": "G28C U47A", "self-cleavage": 0.0536}
{"variant": "C7A G82C", "self-cleavage": 0.0811}
{"variant": "A16U C41U", "self-cleavage": 0.997}
{"variant": "C41U A56U", "self-cleavage": 1.09}
{"variant": "G11C C63G", "self-cleavage": 0.434}
{"variant": "C19A C58G", "self-cleavage": 0.0519}
{"variant": "G29A G67U", "self-cleavage": 0.231}
{"variant": "G59C G74A", "self-cleavage": 0.635}
{"variant": "C75U G76A", "self-cleavage": 0.0852}
{"variant": "A45C C86A", "self-cleavage": 0.95}
{"variant": "U27A C48G", "self-cleavage": 1.09}
